Residue numbers refer to the chain shown, from its start.
B1: fp.010 (antibody, V domains shown)
VH: EVQLLESGGGLVQPGGSLRLSCAASGFTFSTYAMNWVRQAPGKGLEWVSAISSSGLSTQYADSVRGRFTISRDTSKNTLYLHMNSLRAGDTAVYYCAKVEYSGYDPRGPFDSWGQGTLVTVSS
VL: DIQMTQSPSTLSASVGDRVTITCRASQSISGWLAWYQQKPGRAPKLLIYKASSLERGVPSRFSGSGSGTEFTLTISSLQPDDFATYYCQEYSSYPLCTFGQGTKLEIK
B2: hr2.086 (antibody, V domains shown)
VH: EVQLLESGGGLVQPGGYLRLSCAASGFTFSSYAMSWVRQAPGKGLEWVSVISGGGGSAYYADSVKGRFTISRDNSKNTLYLQMNSLRAEDTAVYYCAKIGMILVFDYWGQGTLVTVSS
VL: EIVLTQSPGTLSLSPGERATLSCRASQSVSNNYLAWYQQKPGQAPRLLISGASSRATGIPDRFSGSGSGTDFTLTISRLEPEDFAVYYCQQYGSSPPTFGQGTKVEIK
B3: hr2.014 (antibody, V domains shown)
VH: QVQLVQSGAEVKKPGASVKVSCKASGYTFTTYAVHWLRQVPGQRPEWIGWINAANGNTKYSEKFQGRVTITRDTSASTAYMDLRSLRSEDTAVYYCARLLVVRDDPYYYGMDVWGQGTTVTVSS
VL: not shown
B4: hr2.090 (antibody, V domains shown)
VH: EVQLLESGGGLVQPGGSLRLSCAASGVTFSRYAMSWVRQAPGKGLEWVSTISGGGGGTYYADSVKGRFTISRDNSKNTLYLQMNSLRAEDTAVYYCATLLTVPGPYYFEYWGQGTLVTVSS
VL: EIVLTQSPGTLSLSPGERATLSCRASQSVSSSYLAWYQQKPGQAPRLLIYGASSRATGIPDRFSGSGSGTDFTLTISRLESEDFAVYYCQHSRFTFGPGTRVDIK
B5: hr2.021 (antibody, V domains shown)
VH: QVQLVQSGAEVKKPGASVKVSCKASEAIFSGSYLHWVRQAPGQGLEWMGIITPSGDKTFYAQRFQGRLTMTRDTSTNTLHMHLSGLNSEDTAMYYCARQADKGGWDYWGQGTLVTVSS
VL: EIVLTQSPGTLSLSPGERATLSCRASQSVTSNYVAWYQQKPGQAPRLLIYGASTRATGIPDRFSGGGSGTDFTLTITRLEPEDFAVYYCQQYGSSPPTFTFGPGTKVDIK
B6: hr2.023 (antibody, V domains shown)
VH: QVQLVQSGAEVKKPGASVKVSCRASENIFSDSYLHWVRQAPGQGLEWMGIITPSGDKTFYAQQFQGRLTMTRDTPTNTLHMDLRGLTSADTAIYYCARQATKGGWDYWGQGTLVTVSS
VL: B5 VL with R18S, S31R, V34L, K40Q, T54N, I59V, G66S, T77S, T100I
B7: hr2.024 (antibody, V domains shown)
VH: QVQLVQSGAEVKKPGASVKVSCKASEDIFTDSYLHWVRQAPGQGLEWMGIITPSGDKTFYAQQFQGRLTMTRDPSTNTLYMFLSGLRSDDTAMYFCARQAEKGGWDYWGHGTLVTVSS
VL: B5 VL with E17Q, A25S, S28T, V29I, V34L, K40R, T54I, G66S, T77S, T100I
B8: hr2.020 (antibody, V domains shown)
VH: EVQLVQSGAEVKKPGESLKISCKGSGYRFASHWIGWVRQMPGKGLQWMGIIYPGDSDTKYSPSFQGQVTISADKSINTVYLHWTSLKASDTAVYYCARRPPHLDGGDSPIRFDHWGQGTLVTVSS
VL: QSVLTQPPSASGTPGQRVTISCSGSRSNIGSNDVYWYQQFPGTAPKLLIYRNNQRPSGVPDRFSGSKSGTSASLAISGLRSEDEADYYCATWDDRLTGVFGGGTKLTVV
B9: hr2.018 (antibody, V domains shown)
VH: EVQLVESGGGLVKPGGSLRLSCVASGSSVIDAWMNWVRQAPGKGLEWVGRIKSKTNGATTDYAAPVKGRFTISRDDSKNLSYLQMNSLKTEDTGIYYCTTSPLPNFDYWGRGTLVTVSS
VL: not shown
B10: hr2.019 (antibody, V domains shown)
VH: B9 VH with V23A, A32V, S53T, T55A, N56S, T59A, A63G, K89R, T90A
VL: DIVMTQSPDFLAVSLGETATINCRSSQSVFYFANNKNYLAWYQQKPGQPPKLLIYWASKRESGVPDRFSGSGSGTDFTLTISSLQAEDVATYYCQQYSSPAITFGPGTKVDIK
B11: hr2.016 (antibody, V domains shown)
VH: EVQLLESGGGLVQPGGSLRLSCAASGFMFSKYAMTWVRQTPGKGLEWVSVISGGGGSTYYADSVKGRFTISRDNSKNTLYLQMNSLRAEDTAVYYCAKLLVVFVIDYWGQGALVTVSS
VL: EIVLTQSPGTLSLSPGERATLFCRASQSVSSNLAWYQQKPGRAPRLLISGASSRATGIPDRFSGSGSGTDFTLTISRLEPEDFAVYYCQQYGSSPPTFGQGTKVEIK
B12: fp.001 (antibody, V domains shown)
VH: VQLVESGGGVVQPGRPLRLSCSGSGFIFSNYAMHWVRQAPGKGLEWVAIISFDARNKRYADSVEGRFTISRDNSKNILYLQMNSLRLEDSAVYFCARDLFLSDYDNGVYDPTRGGFDYWGQGTLVTVSS
VL: EIVMTQSPATLSLSPGERATLSCRASQSVNNRLAWYQQKLGQPPRLLISGASTRATGIPARFTGSGSGTEFTLTISSLQSEDFAVYYCQQYHDWPLLSFGGGTKVEIK
B13: hr2.017 (antibody, V domains shown)
VH: EVQLVESGGGLVQPGGSLRLSCAVSGFAFSSSWMHWIRQAPGRGLVWVSRINRDGSTTDYADSVKGRFTISRDNAKATLYLQMNSLRAEDTAVYYCATMGFDYWGQGALVTVSS
VL: DIVMTQSPDSLAVSLGERATINCKSSQNVLYSSNNKNHLSWYQQKPGQPPKLLIYWASTRKSGVPDRFSGSGSGTDFTLTINSLQAEDVAVYYCQQYFSTPNTFGQGTKLEIK
B14: fp.011 (antibody, V domains shown)
VH: EVQLLESGGGLVQPGGSLRLSCAGSGFTFNNYAMTWVRQAPGRGLEWVSAISGSGGSSHYADSVKGRFTITRDNSKNTLYLQMNSLRAEDTAVYYCAFIDYYSGWSYYYGLDVWGQGTTVTVSS
VL: EIVLTQSPATLSLSPGERATLSCRASQGVRTYVAWYQQKPGQAPRLLIYDASNRATGIPARFSGSGSGTDFTLTISSLEPEDFAVYYCQQRYNWPLCSFGQGTKLEIK
B15: fp.008 (antibody, V domains shown)
VH: VQLVESGGGVVQPGRSLRLSCRASGFRFNNYAMHWVRQAPGKGLEWVAIISYEARNEKYAASVKGRFSISRDNAKNTLYLQMNSLRPEDTAIYYCARDVFLSDYDQSGYDVTRGGFDYWGQGTLVTVSS
VL: EIVMTQSPATLSVSPGESATLSCRASQSVSSSLAWYQHKFGQAPRLLIYGASTRATGIPDRFSGSGSGMEFTLTISSLQSEDVAIYYCQQYGDWPLVTFGGGTKVEIK

Columns and labels:
Assay in all cases: peptide ELISA
[1] = biological target: HKU1 FP peptide (HKU1)
[2] = biological target: MERS FP peptide (MERS), K9N5Q8
[3] = biological target: 229E FP peptide (229E)
[4] = biological target: NL63 FP peptide (NL63), Q6Q1S2
[5] = biological target: OC43 FP peptide (OC43), P36334
[6] = biological target: SARS-CoV-2 FP peptide (SARS-CoV-2)
[7] = biological target: HKU4 HR2 peptide (HKU4), A3EX94
[8] = biological target: SADS HR2 peptide (SADS)
[9] = biological target: HKU5 HR2 peptide (HKU5), A3EXD0
[10] = biological target: SARS-CoV-2 HR2 peptide (SARS-CoV-2), P0DTC2
[11] = biological target: MHV HR2 peptide (MHV)
[12] = biological target: SARS-CoV FP peptide (SARS-CoV), P59594

Row | Binder | EC50 [1] [µg/mL] | EC50 [2] [µg/mL] | EC50 [3] [µg/mL] | EC50 [4] [µg/mL] | EC50 [5] [µg/mL] | EC50 [6] [µg/mL] | EC50 [7] [µg/mL] | EC50 [8] [µg/mL] | EC50 [9] [µg/mL] | EC50 [10] [µg/mL] | EC50 [11] [µg/mL] | EC50 [12] [µg/mL]
1 | B1 | 0.0372 | 0.0593 | 0.135 | 0.0451 | 0.0421 | 0.119 |  |  |  |  |  | 
2 | B2 |  |  |  |  |  |  | 0.0269 |  |  |  |  | 
3 | B3 |  |  |  |  |  |  | 0.0457 | 0.705 | 0.0312 | 0.0357 |  | 
4 | B4 |  |  |  |  |  |  | 0.425 |  |  | 0.085 | 0.761 | 
5 | B5 |  |  |  |  |  |  | 0.021 |  | 0.0551 | 0.0242 | 0.0333 | 
6 | B6 |  |  |  |  |  |  | 0.0149 |  | 0.0422 | 0.0175 | 0.0106 | 
7 | B7 |  |  |  |  |  |  | 0.0184 |  | 0.048 | 0.106 | 0.0259 | 
8 | B8 |  |  |  |  |  |  | 0.0352 |  | 0.0631 | 0.0353 | 0.0285 | 
9 | B9 |  |  |  |  |  |  | 0.0417 |  |  | 0.0336 |  | 
10 | B10 |  |  |  |  |  |  | 0.0154 |  | 0.0505 | 0.0267 |  | 
11 | B11 |  |  |  |  |  |  | 0.00744 | 0.0738 | 0.0256 |  | 0.0266 | 
12 | B12 | 0.0298 | 0.0369 | 0.0232 | 0.0214 | 0.0175 | 0.0249 |  |  |  |  |  | 0.0289
13 | B13 |  |  |  |  |  |  | 0.0203 |  | 0.0249 | 0.0145 | 0.02 | 
14 | B14 | 0.0197 | 0.0363 | 0.0503 | 0.0261 | 0.0218 | 0.0363 |  |  |  |  |  | 0.023
15 | B15 | 0.0219 | 0.0361 | 0.019 | 0.0226 | 0.0235 | 0.0366 |  |  |  |  |  | 0.0267

— US20250382354A1
